From patent US20020147151A1 (TRUSTEES OF BOSTON UNIVERSITY, published 2002)

Biological target: T1, native GST (UniProt P08515 1-218 = GST)
T1 construct: also called rGST; GST alone
Assay: pull-down of 35S-labeled rIL-16 on GST-coated glutathione-Sepharose beads, autoradiography (control for non-specific binding)
Method: Specificity of the interaction between rIL-16 and D3D4 was assessed by competition with an excess of unlabeled rIL-16. ³⁵S-labeled rIL-16 incubated with GST (lane 1); ³⁵S-labeled rIL-16 incubated with GST-D3D4 (lane 2); ³⁵S-labeled rIL-16 plus excess unlabelled rIL-16 incubated with GST-D3D4 (lane 3); ³⁵S-labeled rIL-16 plus 10 ug/ml peptide A (lane 4); ³⁵S-labeled rIL-16 plus 10 ug/ml peptide B (lane 5); ³⁵S-labeled rIL-16 plus 10 ug/ml peptide C (lane 6); ); ³⁵S-labeled rIL-16 plus 10 ug/ml peptide A and peptide B (lane 7). The arrow indicates the position of IL-16 on the gel. The identity of this band was re-confirmed by immunoblotting with anti-IL-16 antibody.
To investigate IL-16 interaction with the D3D4 of CD4, the GST-D3D4 fusion protein, or GST alone, was bound to the glutathione-conjugated Sepharose 4B beads. Five ul of the in vitro translation product containing ³⁵S-labeled rIL16 was added to 15 ul of the bead-bound proteins in 230 ul of PBS and 50 ul of NETN buffer (150 mM NaCl, 1 mM EDTA, 0.5% NP 40, and 50 mM Tris, pH 8.0). After incubating at 4° C. for 2 h, the beads were washed 3 times in NETN buffer. The GST-D3D4 or GST proteins were released from the beads by boiling in SDS gel loading buffer, and the supernatant was analyzed by 12% SDS-polyacrylamide gel electrophoresis (SDS-PAGE). The presence of ³⁵S-labeled mrIL16 was detected by autoradiography of the dried gel. […]

T1 sequence (P08515 whole entry): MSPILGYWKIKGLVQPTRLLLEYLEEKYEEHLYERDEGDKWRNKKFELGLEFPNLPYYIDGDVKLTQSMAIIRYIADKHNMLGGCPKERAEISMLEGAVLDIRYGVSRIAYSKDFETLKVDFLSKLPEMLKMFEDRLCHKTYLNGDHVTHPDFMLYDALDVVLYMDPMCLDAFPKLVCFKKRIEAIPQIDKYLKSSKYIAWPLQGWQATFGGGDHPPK

B1: 35S-labeled murine rIL-16 (in vitro transcription and translation product, C-terminal 119 amino acids) (ligand, mouse, UniProt O54824 1204-1322, looked up)
chain: DSAASASAASDISVESKEATVCTVTLEKTSAGLGFSLEGGKGSLHGDKPLTINRIFKGTEQGEMVQPGDEILQLAGTAVQGLTRFEAWNVIKALPDGPVTIVIRRTSLQCKQTTASADS
modifications: [35S] methionine
notes: domain: C-terminal 119 amino acids; also called radiolabeled murine IL-16; 35S-labeled rIL-16
B1: no binding.
